Substrate: CC(=O)Oc1cccc2ccccc12
Test: purified protein
Assay type: biochemical, Rhopalosiphum padi
Conditions: Tris-HCl buffer, 3 mM Fast Blue RR salt, 5 min

B1: RpCarE (Rhopalosiphum padi) (protein)
chain: MEVVIEQGVLKGVQNKTLLSNKPYVSFLGIPYAKPPVNDLRFKPPVKHPGWSGILKAISERDRCMQYAFVANDIIGSEDCLYLNVLVPQNGLNEKLAVMIFIHGGAFNYGCGSVNEQSPDYLLDENVIVITLNYRLNALGFLNLDIDECPGNMGLKDQLFAIKWIKANIAAFGGDVNNITIFGESAGSVSVHYHTMSPQSTGLFQKAIMQSGCAFNPWALNENHRVAAFKLAKNLGCLSSDPNEIVKYLRNVSAIDLVKETKFKDDNGFLDYKFVPSIESDMVSDRFLPAHPKTLATIASPVPVIVGLNSMEGIIALSEYRLSKFSDLQITDEISKLFNNQYSTEVISKIKDFYFNKCNNNCEIAKLENICHLHSDVFFVKDFYRGFDHFLKQNVTPVYIYEFKFDGELNAIKNWIFATRPVLRHALKGACHADEIYYLFRNNLSGVVPKPNSPELEMCKAMGKMWSNFAKTGDPNSLDLSFKWNYASASDTKYLSIDGDRTQMTQGMINNNRSRFWKDLIKESIV
notes: pET-28a His6-tag fusion (tag kept), E. coli BL21(DE3); catalytic triad S185-E312-H432
Km: 42.98 ± 6.73 µM
kcat: 5.50 ± 0.28 s⁻¹
kcat/Km: 130000 M⁻¹ s⁻¹
